Experimental data: patent US20050049403A1 (CAMBRIDGE ANTIBODY TECHNOLOGY, published 2005)

Tests used:
recombinant human TGFβ2 [1] = target: T1, recombinant human TGFβ2 (human, UniProt P61812 303-414); assay: cell-based or functional assay
T1 sequence (looked up): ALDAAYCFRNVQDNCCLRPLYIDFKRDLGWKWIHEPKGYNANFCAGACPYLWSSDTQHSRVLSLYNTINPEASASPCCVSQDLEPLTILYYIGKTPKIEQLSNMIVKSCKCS

recombinant human TGFβ1 = recombinant human TGFβ1 (human, UniProt P01137 279-390); assay: cell-based or functional assay
recombinant human TGFβ2 [2] = target: T1, recombinant human TGFβ2; assay: cell-based or functional assay; remark: listed apart in the source
recombinant human TGFβ2 [3] = target: T1, recombinant human TGFβ2; assay: BIAcore 2000, koff divided by kon
Experimental: (§1) To determine the kinetic parameters, a series of dilutions of the antibody samples was made in HBS from about 500 μg/ml down to less than 1 μg/ml, usually through doubling dilutions. After the antibody has been injected over the antigen surface, the surface is washed with HBS, then regenerated by stripping off the bound antibody with a pulse of 100 mM HCl. At the higher concentrations of antibody the antigen on the chip surface is saturated, and the off rate is determined on washing with buffer in the dissociation phase. For determination of the on-rate, lower concentrations of antibody are used, giving a linear binding phase in the sensorgram, allowing kₒₙ determination.
(§2) 6B1 IgG4 was purified from the GS/NS0 cell line of Example 10 as in Example 2. 6B1 single chain Fv was expressed intracellularly in E. coli, refolded in vitro (using the methodology of WO94/18227), and purified to give a homogeneous product. The values of kₒₙ and koff were determined for 6B1 IgG4 for binding to both TGFβ2 and TGFβ3, and for the single-chain Fv 6B1 for binding to TGFβ2. The dissociation constant was calculated by dividing koff by kₒₙ.

recombinant human TGFβ2 [4] = target: T1, recombinant human TGFβ2; assay: BIAcore 2000, antigen immobilised, antibody as analyte
Experimental: The immobilisation of ligand is automated by the BIACore 2000 machine, and all steps are carried out in the autosampler or in the flowcell, on the dextran surface of the chip. The buffer used throughout the immobilisation procedure, and the analysis of samples is Hepes-buffered saline (HBS) with a surfactant (Pharmacia Biosensor). The chips (Pharmacia, CM5), have dextran coating on a thin layer of gold. NHS at 100 mM and EDC at 400 mM are mixed by the autosampler, and then a fixed volume is injected over the flowcell surface. This is followed by an injection of antigen in a suitable buffer. In the case of TGFβ, a surface of the correct density was given by using 25-30 μg/ml solution of TGFβ2 (AMS) OR TGFβ3 (R & D systems) in 10 mM acetate. After injection of the ligand, the chip is blocked using 1M ethanolamine. The total amount of TGFβ bound was assessed from the total increase in resonance units over this period.
as §1, §2

[5] = target: T2, phage peptide display Clone 1 (RQLSLQQRMH); assay: phage ELISA on coated 6B1 IgG4 after four rounds of panning
T2 peptide: RQLSLQQRMH
Experimental: (§3) Purified 6B1 IgG4 antibody at 10 μg/ml in 4 ml of PBS was coated onto a plastic tube (Nunc; maxisorp) by incubating overnight at 4° C. After washing and blocking with MPBS (see Example 1) an aliquot of the peptide library containing 5×10¹³ phage in 4 ml 3% MPBS was added to the tube and incubated at room temperature for 1.5 hours. The tube was washed 10 times with PBST(0.1%), then 10 times with PBS. Bound phage particles were eluted from the tube by adding 4 ml of 100 mM triethylamine and incubating the tube stationary for 10 minutes at room temperature. The eluted phage were then added to a tube containing 2 ml 1M-Tris.HCl (pH7.4) and 10 ml 2YT broth. The phage were then added to 20ml of logarithmically growing E. coli TG1 cells and grown for 1 hour shaking at 100 rpm at 37° C. The infected cells were then plated on 2YT agar medium with 15 μg/ml tetracycline in 243 mm×243 mm dishes (Nunc). Plates were incubated at 30° C. for 18 hours. Colonies were scraped off the plates into 10 ml 2TY broth containing 15% (v/v) glycerol for storage at −70° C.
(§4) These clones were screened for clones that bound specifically to the antibody 6B1 in ELISA. Cells from the master plates were used to inoculate 96 well tissue culture plates containing 100 μl 2YT broth (containing 15 μg/ml tetracycline) per well and grown overnight with gentle shaking at 100 rpm at 30° C. The plates were then centrifuged at 2000 rpm. The 100 μl phage supernatants from each well were recovered and each was mixed with 100 μl of 4% skimmed milk powder in 2×PBS. 100 μl of each of these was then assayed by phage ELISA. Purified 6B1 IgG4 antibody at 10 μg/ml in PBS was coated onto flexible microtitre plates by incubating overnight at 4° C. Control plates coated with an irrelevant IgG4 antibody at 10 μg/ml were also prepared. The ELISAs were performed as described in Example 1, and visualised with the chromagenic substrate pNPP (Sigma).

[6] = target: T3, phage peptide display Clone 2 (DPMDMVLKLC); assay: as above
T3 peptide: DPMDMVLKLC
Experimental: as §3, §4

[7] = target: T4, phage peptide display Clone 3 (WSEFMRQSSL); assay: as above
T4 peptide: WSEFMRQSSL
Experimental: as §3, §4

[8] = target: T5, phage peptide display clone VESTSLQFRG (fourth clone, printed as Clone 3); assay: as above
T5 construct: also called Clone 3 (second of that label)
T5 peptide: VESTSLQFRG
Experimental: as §3, §4

recombinant human TGFβ2 [9] = target: T1, recombinant human TGFβ2; assay: radioreceptor assay, inhibition of 125I-TGFβ2 binding to A549 cells; concentration of antibody combining sites
Experimental: Cells are seeded at 1-2×10^5 cells/ml/well into the wells of 24-well cluster plates and grown for 24 h in serum-free DMEM. Cell monlayers are washed twice with serum-free DMEM and 0.5 ml binding medium (DMEM/Hams F12 (Sigma D-6421) containing 0.1% (v/v) BSA added to each well.
Aliqouts of ¹²⁵I-TGFβ1 or TGFβ2 (70-90 TBq/mmol; Amersham International) at 20 pM are preincubated with antibody in binding medium at room temperature for 1 h. Duplicate samples of 0.5 ml of TGFβ/antibody mixtures are then added to the cell monlayers and are incubated at 37° C. for 1-2 h. Control wells contain TGFβ only. Unbound TGFβ is removed by washing 4 times with Hank's balanced salt solution containing 0.1% BSA. Cells are solubilised in 0.8 ml 25 mM Tris HCl pH 7.5, 10% glycerol, 1% Triton X-100 at room temperature for 20 min. The contents of each well are removed and ¹²⁵I measured in a gamma counter.

recombinant human TGFβ1, sequence (P01137 279-390 limits assumed): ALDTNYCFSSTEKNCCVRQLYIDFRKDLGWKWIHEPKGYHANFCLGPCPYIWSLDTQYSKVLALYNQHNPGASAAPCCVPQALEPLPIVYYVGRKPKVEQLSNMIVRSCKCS

B1: 6B1 IgG4 (antibody, V domains shown)
VH: EVQLVESGGGVVQPGRSLRLSCAASGFTFSSYGMHWVRQAPGKGLEWVAVIWYDGSNKYYADSVKGRFTISRDNSKNTLYLQMDSLRAEDTAVYYCGRTLESSLWGQGTLVTVSS
VL: SSELTQDPAVSVALGQTVRITCQGDSLRSYYASWYQQKPGQAPVLVIYGKNNRPSGIPDRFSGSSSGNTASLTITGAQAEDEADYYCNSRDSSSTHRGVFGGGTKLTVLG
notes: Whole antibody: human gamma 4 and human lambda constant regions; FITC-labelled in the human tissue study; also called antibody 6B1
IC50 in TF1 neutralisation assay, 6B1 IgG4 from GS/NS0 cell line 5D8-2A6 (recombinant human TGFβ2 [1]): 1.8 nM
TF1 cell proliferation assay IC50 (nM IgG) (recombinant human TGFβ1): > 100 nM
TF1 cell proliferation assay IC50 (nM IgG) (recombinant human TGFβ2 [2]): 2 nM
Kd (recombinant human TGFβ2 [3]): 0.89 nM
koff (recombinant human TGFβ2 [4]): 0.000336 s⁻¹
kon (recombinant human TGFβ2 [4]): 384000 M⁻¹ s⁻¹
binding result [5]: binds
binding result [6]: binds
binding result [7]: binds
binding result [8]: binds
IC50 (recombinant human TGFβ2 [9]): 0.6 nM
